Experimental data published in article PMC10220053.

target: Eaf3^MRG–Rco1^PHD1–SID complex (S. cerevisiae) (UniProt Q12432); assay: ITC; H3 1–12 peptides with the Eaf3^MRG–Rco1^PHD1–SID complex or with Rco1^PHD1 alone
Sequence (Q12432 218-401, chain 1 of 2): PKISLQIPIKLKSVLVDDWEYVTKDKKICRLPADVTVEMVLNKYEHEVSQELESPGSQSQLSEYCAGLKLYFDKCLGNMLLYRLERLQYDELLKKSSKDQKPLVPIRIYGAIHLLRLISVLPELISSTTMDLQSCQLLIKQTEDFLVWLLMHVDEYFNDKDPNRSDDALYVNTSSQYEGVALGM
Sequence (Q04779 240-376, chain 2 of 2, further chain): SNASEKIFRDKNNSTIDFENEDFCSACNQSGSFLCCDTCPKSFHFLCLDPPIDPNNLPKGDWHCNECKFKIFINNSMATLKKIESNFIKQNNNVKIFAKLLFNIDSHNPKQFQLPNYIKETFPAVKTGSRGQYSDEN

Kd [µM]	Substance
22	H3K4me0^1–12 peptide (from UniProt P61830 2-13)
65	H3K4me1^1–12 peptide (from UniProt P61830 2-13)
360	H3K4me2^1–12 peptide (from UniProt P61830 2-13)
